The values below are quoted from earlier work in PMC2766628.

pKd: −log10 of the molar value.

The target of the series is PEP 3BP1 element (UniProt Q9Y2R2).
UniProt Q9Y2R2, sequence (Q9Y2R2 605-629): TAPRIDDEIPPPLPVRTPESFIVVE

As usually defined, the pKd is the Kd on a negative log10 scale, so that one unit is a factor of ten. For the substance Csk SH3 (from UniProt P41240), the pKd was 6.10.
